Experiment [1] deals with human CCR8 on CHO cells stably expressing human CCR8 (CHO.hCCR8) (human) (UniProt P51685). As to the kind of experiment: real-time cell binding (LigandTracer); hCCL1^AF647 added at 0.5, 10 and 50 nM in sequence to CHO.hCCR8 cells at room temperature, then dissociation in medium; signal of CHO wild-type cells subtracted; one-to-two step model.
The target in experiment [2] is T1, human CCR8 on CHO cells stably expressing human CCR8 (CHO.hCCR8) (Homo sapiens, UniProt P51685). As to the kind of experiment: cell-based or functional assay.
In experiment [3] the target is T1, human CCR8 on CHO cells stably …. As to the kind of experiment: radioligand binding; unlabeled mAb1 (from 50 nM, 1:3 dilutions) against a fixed concentration of 125I-mAb1 on CHO.CCR8 cells, room temperature, 18 h; heterologous one site-fit Ki competitive binding model; three independent experiments, not averaged. As to conditions: one partner purified.

“And” between values parts separate entries of the source, which are not always exact repeats. Equal entries are not always repeated.

Usually Kd stands for the equilibrium constant for the complex coming apart. A higher Kd goes with a looser complex. As a reminder, the Ki is a dissociation constant, usually derived from enzyme kinetics or from competition with a known ligand.

T1 sequence (P51685 whole entry): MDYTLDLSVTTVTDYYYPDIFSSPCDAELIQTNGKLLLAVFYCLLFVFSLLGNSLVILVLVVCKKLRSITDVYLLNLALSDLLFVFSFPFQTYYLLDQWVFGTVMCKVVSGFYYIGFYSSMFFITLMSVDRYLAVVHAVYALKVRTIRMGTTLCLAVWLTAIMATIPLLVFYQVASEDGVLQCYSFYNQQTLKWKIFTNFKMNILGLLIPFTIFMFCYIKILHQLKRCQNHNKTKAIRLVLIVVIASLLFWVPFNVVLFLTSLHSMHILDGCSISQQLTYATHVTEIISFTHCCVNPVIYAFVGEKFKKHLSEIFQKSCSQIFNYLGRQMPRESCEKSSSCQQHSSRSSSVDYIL
Chain of human CCR8 on CHO cells stably expressing human CCR8 (CHO.hCCR8) (human) (P51685 whole entry): as above

“AlexaFluor647-labeled human CCL1 (hCCL1^AF647) (from UniProt P22362 24-96) (ligand)”: in experiment [1], the KD of the high affinity binding event (slow on, slow off) was found to be 0.7 nM; the KD of the low affinity binding event (fast on, fast off) was found to be 15 nM; the dissociation constant Kd is 1 nM.

B1: anti-human CCR8 antibody mAb1 (IgG) (antibody, V domains shown)
VH: QSVEESGGRLVTPGTPLTLTCTVSGFSLSNYAMIWVRQAPGEGLEWVGTISLGGYTYYANWAKGRFTISKTSTTVDLKISSPTTEDTATYFCARARWSTDSAIYTYAFDPWGPGTLVTVSS
VL: AYDMTQTPASVEVAVGGTVTIKCQASQSISSYLSWYQQKPGQRPELLIYKASTLASGVSSRFKGSGSGTQFTLTISDLEAADAATYYCQQGYTSSNIDNIFGGGTEVVVK
notes: variable region and CH1 as the heavy chain of Fab1, deposited in PDB 8TLM; as the light chain of Fab1, deposited in PDB 8TLM; Raised in rabbits; a humanized version was also made; the IgG was detected with anti-human IgG (Fc) secondaries; In the radioligand assay the tracer was 125I-labelled mAb1 (random tyrosines); also called anti-hCCR8 mAb1; anti-CCR8 mAb1
B1: in experiment [2], the “Ca^2+ influx (FLIPR) in CHO.hCCR8 cells: inhibition of the signal induced by a sub-maximal (EC80) concentration of CCL1 (blocks CCL1-CCR8); apparent IC50” value was determined as 57.9 nM. Further, in experiment [3], binding was characterised by a dissociation constant (Kd) of 0.0284 nM; the Ki was 0.0414 nM and 0.0555 nM.

(Values after publication PMC10692165, “Structural basis of antibody inhibition and chemokine activation of the human CC chemokine receptor 8” (Nature Communications, 2023).)
